The values that follow come from US20130267686A1 (HOFFMAN LA ROCHE, published 2013).

What all share (test): SPR (Biacore)
For orientation: SPR reads the build-up and loss of mass on a sensor chip optically.

The target in one test is T1, HER3 (UniProt P21860 20-643, limits assumed).
T1 construct: Antigen as used in Biacore; also called ErbB3

Test [1] has as its target T2, cMet (UniProt P08581 25-932, limits assumed).
T2 construct: Antigen as used in Biacore

In test [2] the target is T2, cMet. This is another data set of the same source.

T2 sequence (P08581 25-932 limits assumed): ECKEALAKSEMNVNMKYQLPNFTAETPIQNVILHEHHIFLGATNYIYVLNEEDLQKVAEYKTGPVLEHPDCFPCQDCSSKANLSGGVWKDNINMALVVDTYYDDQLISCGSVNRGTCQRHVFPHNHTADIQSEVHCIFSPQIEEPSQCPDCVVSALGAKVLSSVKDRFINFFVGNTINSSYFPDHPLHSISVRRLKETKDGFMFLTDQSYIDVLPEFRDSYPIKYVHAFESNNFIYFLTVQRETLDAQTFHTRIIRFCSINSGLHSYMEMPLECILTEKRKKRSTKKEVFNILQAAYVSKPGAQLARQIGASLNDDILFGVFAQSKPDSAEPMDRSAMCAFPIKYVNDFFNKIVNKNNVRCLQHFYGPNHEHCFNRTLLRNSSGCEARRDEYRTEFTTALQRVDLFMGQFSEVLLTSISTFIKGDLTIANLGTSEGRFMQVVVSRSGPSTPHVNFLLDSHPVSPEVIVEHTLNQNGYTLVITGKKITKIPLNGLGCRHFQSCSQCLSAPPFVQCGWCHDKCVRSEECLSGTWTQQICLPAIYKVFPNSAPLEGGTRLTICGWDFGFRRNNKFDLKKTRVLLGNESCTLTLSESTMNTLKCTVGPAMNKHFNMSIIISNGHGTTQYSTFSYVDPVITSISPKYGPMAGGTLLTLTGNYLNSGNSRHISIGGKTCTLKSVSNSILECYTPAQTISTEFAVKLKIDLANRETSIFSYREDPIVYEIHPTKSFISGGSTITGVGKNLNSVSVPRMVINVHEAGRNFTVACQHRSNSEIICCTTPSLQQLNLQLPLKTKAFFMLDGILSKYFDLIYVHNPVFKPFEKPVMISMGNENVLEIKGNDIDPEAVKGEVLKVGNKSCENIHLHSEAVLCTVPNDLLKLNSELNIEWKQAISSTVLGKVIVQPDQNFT

B1: Her3_MetSS_KHSS_FS1 (protease cleavage during expression) (bispecific antibody)
heavy 1: not shown
heavy 2: not shown
chain: ALGGGGSGGGGSDIQMTQSPSSLSASVGDRVTITCKSSQSLLYTSSQKNYLAWYQQKPGKAPKLLIYWASTRESGVPSRFSGSGSGTDFTLTISSLQPEDFATYYCQQYYAYPWTFGCGTKVEIKR
light: DIQMTQTTSSLSASLGDRVTISCRARQDISNYLNWYQRKPDGTVKLLIYYTSRLHSGVPSRFSGSGSGTDYSLTISNLEQEDIATYFCQQGNTFPWTFGGGTKLEIKRTVAAPSVFIFPPSDEQLKSGTASVVCLLNNFYPREAKVQWKVDNALQSGNSQESVTEQDSKDSTYSLSSTLTLSKADYEKHKVYACEVTHQGLSSPVTKSFNRGEC
notes: Trivalent Her3-cMet bispecific: full length anti-Her3 IgG with knobs-into-holes, cMet dsFv (VHCys44/VLCys100) at the C-termini; Arg/Lys residues before the cleavage site were removed
Turning to B1, in the test with HER3, the Kd stood at 2.05 nM, the koff amounted to 0.000338 s⁻¹ and the kon amounted to 165000 M⁻¹ s⁻¹. Besides, in the test with cMet [1], the Kd was found to be 6.05 nM, the koff came out at 0.000188 s⁻¹ and the kon came out at 31200 M⁻¹ s⁻¹.

B2: Her3_MetSS_KHSS_PreSci_digested (after purification and protease cleavage) (bispecific antibody)
heavy 1: not shown
heavy 2: not shown
chain: GPSGGGGSGGGGSDIQMTQSPSSLSASVGDRVTITCKSSQSLLYTSSQKNYLAWYQQKPGKAPKLLIYWASTRESGVPSRFSGSGSGTDFTLTISSLQPEDFATYYCQQYYAYPWTFGCGTKVEIKR
light: DIQMTQTTSSLSASLGDRVTISCRARQDISNYLNWYQRKPDGTVKLLIYYTSRLHSGVPSRFSGSGSGTDYSLTISNLEQEDIATYFCQQGNTFPWTFGGGTKLEIKRTVAAPSVFIFPPSDEQLKSGTASVVCLLNNFYPREAKVQWKVDNALQSGNSQESVTEQDSKDSTYSLSSTLTLSKADYEKHKVYACEVTHQGLSSPVTKSFNRGEC
notes: the VL stays attached through the dsFv disulfide
For B2, in the test with cMet [2], the “fold improved affinity against the restricted form” value is above 30 fold. Moreover, in the test with HER3, the Kd turned out to be 2.02 nM, the koff came to 0.000356 s⁻¹ and the kon came out at 176000 M⁻¹ s⁻¹. In the test with cMet [1], this molecule registered a Kd of 8.35 nM, a koff of 0.000203 s⁻¹ and a kon of 24300 M⁻¹ s⁻¹.

B3: Her3_MetSS_KHSS_PreSci (purified intermediate) (bispecific antibody, human IgG1, kappa)
heavy 1: not shown
heavy 2: not shown
light: DIQMTQTTSSLSASLGDRVTISCRARQDISNYLNWYQRKPDGTVKLLIYYTSRLHSGVPSRFSGSGSGTDYSLTISNLEQEDIATYFCQQGNTFPWTFGGGTKLEIKRTVAAPSVFIFPPSDEQLKSGTASVVCLLNNFYPREAKVQWKVDNALQSGNSQESVTEQDSKDSTYSLSSTLTLSKADYEKHKVYACEVTHQGLSSPVTKSFNRGEC
notes: also called restricted dsFv module; double-tethered dsFv
For B3, the “fold reduced affinity against the Wildtype Fab” value with cMet [2] was above 20 fold. Also, in the test with HER3, the Kd worked out at 2.4 nM, the koff was 0.000414 s⁻¹ and the kon was 172000 M⁻¹ s⁻¹. Also, in the test with cMet [1], the Kd was 369 nM, the koff was determined as 0.000197 s⁻¹ and the kon came to 533 M⁻¹ s⁻¹.

B4: Her3_MetSS_KHSS_FS2 (protease cleavage during expression) (bispecific antibody)
heavy 1: not shown
heavy 2: not shown
chain: SLGGGGSGGGGSDIQMTQSPSSLSASVGDRVTITCKSSQSLLYTSSQKNYLAWYQQKPGKAPKLLIYWASTRESGVPSRFSGSGSGTDFTLTISSLQPEDFATYYCQQYYAYPWTFGCGTKVEIKR
light: DIQMTQTTSSLSASLGDRVTISCRARQDISNYLNWYQRKPDGTVKLLIYYTSRLHSGVPSRFSGSGSGTDYSLTISNLEQEDIATYFCQQGNTFPWTFGGGTKLEIKRTVAAPSVFIFPPSDEQLKSGTASVVCLLNNFYPREAKVQWKVDNALQSGNSQESVTEQDSKDSTYSLSSTLTLSKADYEKHKVYACEVTHQGLSSPVTKSFNRGEC
notes: As m1 but with furin site variant 2
On to B4, for which, in the test with cMet [1], binding was put at a Kd of 7.05 nM, the koff worked out at 0.000193 s⁻¹ and the kon is 27400 M⁻¹ s⁻¹.

Usually Kd stands for the equilibrium constant for the complex coming apart. By koff is commonly meant the first-order rate constant of dissociation. One may read the kon as a measure of how fast the partners come together.
